We go through one sequence from patent US20050136462.

The test system of series [1] is Nb.BsaI N441D/R442G (A11) N441D/R442G. Kind of series: cleavage_in_vitro. As to conditions: bottom-strand nicking; estimated in cell extract.
Series [2] deals with Nb.BsaI R442G R442G. Briefly: cleavage_in_vitro. As to conditions: predominant nicking; about 8-fold lower than N441D/R442G.

In the case of “GGTCTCNNNNN (double strand) [BsaI site (in supercoiled pUC19)]”, the results for the activity (units/g wet cells) in series [1] and in series [2] were 800000 and 100000, respectively.
